Experimental data reported in patent US20200199241A1 (Chugai, published 2020).
Residue numbers refer to the chain shown, from its start.

B1: IgG1-F870 (antibody)
heavy: QVQLQESGPGLVKPSETLSLTCAVSGHSISHDHAWSWVRQPPGEGLEWIGFISYSGITNYNPSLQGRVTISRDNSKNTLYLQMNSLRAEDTAVYYCARSLARTTAMDYWGEGTLVTVSSASTKGPSVFPLAPSSKSTSGGTAALGCLVKDYFPEPVTVSWNSGALTSGVHTFPAVLQSSGLYSLSSVVTVPSSSLGTQTYICNVNHKPSNTKVDKKVEPKSCDKTHTCPPCPAPELKGGPKVFLFPPKPKDTLYISRTPEVTCVVVDVSHEDPEVKFNWYVDGVEVHNAKTKPREEQYNSTYRVVSVLQVLHADWLNGKEYKCKVSNKALPAPIEKTISKAKGQPREPQVYTLPPSRDELTKNQVSLTCLVKGFYPSDIAVEWESNGQPENNYKTTPPVLDSDGSFFLYSKLTVDKSRWQQGNVFSCSVMHEALHYHYTQKSLSLSP
light: not shown
notes: EU numbering; copies: 2 + 2
B2: IgG1-F894 (antibody)
heavy: B1 heavy with K237R, Q309T, A313Q, Y438I
light: not shown
notes: EU numbering; copies: 2 + 2
B3: IgG1-F910 (antibody)
heavy: B1 heavy with K237L, K241S, Q309T, A313Q, N317D, G318Q
light: not shown
notes: EU numbering; copies: 2 + 2
B4: IgG1-F925 (antibody)
heavy: B1 heavy with K237R, Y438I
light: not shown
notes: EU numbering; copies: 2 + 2
B5: IgG1-F892 (antibody)
heavy: B1 heavy with K237L, K241S, S256T, Q309T, A313Q, Y438I
light: not shown
notes: EU numbering; copies: 2 + 2
B6: IgG1-F884 (antibody)
heavy: B1 heavy with K237L, K241S, Q309T, A313Q, Y438N
light: not shown
notes: EU numbering; copies: 2 + 2
B7: IgG1-F895 (antibody)
heavy: B1 heavy with N288E, N317E
light: not shown
notes: EU numbering; copies: 2 + 2
B8: IgG1-F901 (antibody)
heavy: B1 heavy with K237L, K241S, Q309T, A313Q, N317D, G318E
light: not shown
notes: EU numbering; copies: 2 + 2
B9: IgG1-F902 (antibody)
heavy: B1 heavy with K237L, K241S, Q309T, A313Q, N317D, G318F
light: not shown
notes: EU numbering; copies: 2 + 2
B10: IgG1-F932 (antibody)
heavy: B1 heavy with K237L, K241S, T252V, Q309T, A313Q
light: not shown
notes: EU numbering; copies: 2 + 2
B11: IgG1-F898 (antibody)
heavy: B1 heavy with K237L, K241S, Q309T, A313Q, N317E, N386A, N391A
light: not shown
notes: EU numbering; also called E898; copies: 2 + 2
B12: IgG1-F908 (antibody)
heavy: B1 heavy with K237L, K241S, Q309T, A313Q, N317D, G318N
light: not shown
notes: EU numbering; copies: 2 + 2
B13: IgG1-F875 (antibody)
heavy: B1 heavy with K237L, K241S, Q309T, A313Q, Y438A
light: not shown
notes: EU numbering; copies: 2 + 2
B14: IgG1-F921 (antibody)
heavy: B1 heavy with K237L, K241S, N288E, Q309T, A313Q, N386A, N391A
light: not shown
notes: EU numbering; copies: 2 + 2
B15: IgG1-F872 (antibody)
heavy: B1 heavy with N288E, Q309T, A313Q
light: not shown
notes: EU numbering; copies: 2 + 2
B16: IgG1-F913 (antibody)
heavy: B1 heavy with K237L, K241S, Q309T, A313Q, N317D, G318T
light: not shown
notes: EU numbering; copies: 2 + 2
B17: IgG1-F906 (antibody)
heavy: B1 heavy with K237L, K241S, Q309T, A313Q, N317D, G318L
light: not shown
notes: EU numbering; copies: 2 + 2
B18: IgG1-F905 (antibody)
heavy: B1 heavy with K237L, K241S, Q309T, A313Q, N317D, G318K
light: not shown
notes: EU numbering; copies: 2 + 2
B19: IgG1-F927 (antibody)
heavy: B1 heavy with K237R, S256T, Q309T, A313Q, Y438I
light: not shown
notes: EU numbering; copies: 2 + 2
B20: IgG1-F911 (antibody)
heavy: B1 heavy with K237L, K241S, Q309T, A313Q, N317D, G318R
light: not shown
notes: EU numbering; copies: 2 + 2
B21: IgG1-F873 (antibody)
heavy: B1 heavy with K237R, N288E, Q309T, A313Q
light: not shown
notes: EU numbering; copies: 2 + 2
B22: IgG1-F888 (antibody)
heavy: B1 heavy with K237L, K241S, Q309T, A313Q, Y438S
light: not shown
notes: EU numbering; copies: 2 + 2
B23: IgG1-F878 (antibody)
heavy: B1 heavy with K237L, K241S, Q309T, A313Q, Y438F
light: not shown
notes: EU numbering; copies: 2 + 2
B24: IgG1-F889 (antibody)
heavy: B1 heavy with K237L, K241S, Q309T, A313Q, Y438T
light: not shown
notes: EU numbering; copies: 2 + 2
B25: IgG1-F918 (antibody)
heavy: B1 heavy with K237L, K241S, D282E, Q309T, A313Q, N386A, N391A
light: not shown
notes: EU numbering; copies: 2 + 2
B26: IgG1-F877 (antibody)
heavy: B1 heavy with K237L, K241S, Q309T, A313Q, Y438E
light: not shown
notes: EU numbering; copies: 2 + 2
B27: IgG1-F882 (antibody)
heavy: B1 heavy with K237L, K241S, Q309T, A313Q, Y438L
light: not shown
notes: EU numbering; copies: 2 + 2
B28: IgG1-F881 (antibody)
heavy: B1 heavy with K237L, K241S, Q309T, A313Q, Y438K
light: not shown
notes: EU numbering; copies: 2 + 2
B29: IgG1-F899 (antibody)
heavy: B1 heavy with K237L, K241S, Q309T, A313Q, N317D, G318A
light: not shown
notes: EU numbering; copies: 2 + 2
B30: IgG1-F909 (antibody)
heavy: B1 heavy with K237L, K241S, Q309T, A313Q, N317D, G318P
light: not shown
notes: EU numbering; copies: 2 + 2
B31: IgG1-F893 (antibody)
heavy: B1 heavy with Q309T, A313Q, Y438I
light: not shown
notes: EU numbering; copies: 2 + 2
B32: IgG1-F926 (antibody)
heavy: B1 heavy with S256T, Q309T, A313Q, Y438I
light: not shown
notes: EU numbering; copies: 2 + 2
B33: IgG1-F897 (antibody)
heavy: B1 heavy with K237L, K241S, Q309T, A313Q, N317D, N386A, N391A
light: not shown
notes: EU numbering; copies: 2 + 2
B34: IgG1-F879 (antibody)
heavy: B1 heavy with K237L, K241S, Q309T, A313Q, Y438G
light: not shown
notes: EU numbering; copies: 2 + 2
B35: IgG1-F883 (antibody)
heavy: B1 heavy with K237L, K241S, Q309T, A313Q, Y438M
light: not shown
notes: EU numbering; copies: 2 + 2
B36: IgG1-F907 (antibody)
heavy: B1 heavy with K237L, K241S, Q309T, A313Q, N317D, G318M
light: not shown
notes: EU numbering; copies: 2 + 2
B37: IgG1-F934 (antibody)
heavy: B1 heavy with K237L, G238K, P240D, K241S, T252V, Q309T, A313Q
light: not shown
notes: EU numbering; copies: 2 + 2
B38: IgG1-F914 (antibody)
heavy: B1 heavy with K237L, K241S, Q309T, A313Q, N317D, G318V
light: not shown
notes: EU numbering; copies: 2 + 2
B39: IgG1-F900 (antibody)
heavy: B1 heavy with K237L, K241S, Q309T, A313Q, N317D, G318D
light: not shown
notes: EU numbering; copies: 2 + 2
B40: IgG1-F929 (antibody)
heavy: B1 heavy with K237L, K241S, S256T, Y438I
light: not shown
notes: EU numbering; copies: 2 + 2
B41: IgG1-F938 (antibody)
heavy: B1 heavy with Q309T, A313Q, Y438V
light: not shown
notes: copies: 2 + 2
B42: IgG1-F931 (antibody)
heavy: B1 heavy with K237L, P240D, K241S, T252V, Q309T, A313Q, Y438I
light: not shown
notes: EU numbering; copies: 2 + 2
B43: IgG1-F912 (antibody)
heavy: B1 heavy with K237L, K241S, Q309T, A313Q, N317D, G318S
light: not shown
notes: EU numbering; copies: 2 + 2
B44: IgG1-F896 (antibody)
heavy: B1 heavy with K237R, N288E, N317E
light: not shown
notes: EU numbering; copies: 2 + 2
B45: IgG1-F937 (antibody)
heavy: B1 heavy with K237L, P240D, T252V, Q309T, A313Q
light: not shown
notes: EU numbering; copies: 2 + 2
B46: IgG1-F933 (antibody)
heavy: B1 heavy with L236R, K237L, P240D, K241S, T252V, Q309T, A313Q
light: not shown
notes: EU numbering; copies: 2 + 2
B47: IgG1-F871 (antibody)
heavy: B1 heavy with K237R
light: not shown
notes: EU numbering; copies: 2 + 2
B48: IgG1-F880 (antibody)
heavy: B1 heavy with K237L, K241S, Q309T, A313Q, Y438H
light: not shown
notes: EU numbering; copies: 2 + 2
B49: IgG1-F920 (antibody)
heavy: B1 heavy with K237L, K241S, N288S, Q309T, A313Q, N386A, N391A
light: not shown
notes: EU numbering; copies: 2 + 2
B50: IgG1-F935 (antibody)
heavy: B1 heavy with K237L, G239K, P240D, K241S, T252V, Q309T, A313Q
light: not shown
notes: EU numbering; copies: 2 + 2
B51: IgG1-F903 (antibody)
heavy: B1 heavy with K237L, K241S, Q309T, A313Q, N317D, G318H
light: not shown
notes: EU numbering; copies: 2 + 2
B52: IgG1-F930 (antibody)
heavy: B1 heavy with K237L, P240D, K241S, T252V, N288E, Q309T, A313Q
light: not shown
notes: EU numbering; copies: 2 + 2
B53: IgG1-F922 (antibody)
heavy: B1 heavy with N288E, Q309T, A313Q, Y438I
light: not shown
notes: EU numbering; copies: 2 + 2
B54: IgG1-F939 (antibody)
heavy: B1 heavy with K237R, Q309T, A313Q, Y438V
light: not shown
notes: copies: 2 + 2
B55: IgG1-F917 (antibody)
heavy: B1 heavy with K237L, K241S, N288S, Q309T, A313Q
light: not shown
notes: EU numbering; copies: 2 + 2
B56: IgG1-F891 (antibody)
heavy: B1 heavy with K237L, K241S, Q309T, A313Q, Y438W
light: not shown
notes: EU numbering; copies: 2 + 2
B57: IgG1-F915 (antibody)
heavy: B1 heavy with K237L, K241S, Q309T, A313Q, N317D, G318W
light: not shown
notes: EU numbering; copies: 2 + 2
B58: IgG1-F923 (antibody)
heavy: B1 heavy with K237R, N288E, Q309T, A313Q, Y438I
light: not shown
notes: EU numbering; copies: 2 + 2
B59: IgG1-F924 (antibody)
heavy: B1 heavy with Y438I
light: not shown
notes: EU numbering; copies: 2 + 2
B60: IgG1-F904 (antibody)
heavy: B1 heavy with K237L, K241S, Q309T, A313Q, N317D, G318I
light: not shown
notes: EU numbering; copies: 2 + 2

Molecular target: T1, soluble human FcRn complexed with β2-microglobulin (human, UniProt P61769 21-119, limits assumed)
T1 construct: also called hFcRn
T1 sequence (chain, as listed by the source limits assumed, chain 1 of 2): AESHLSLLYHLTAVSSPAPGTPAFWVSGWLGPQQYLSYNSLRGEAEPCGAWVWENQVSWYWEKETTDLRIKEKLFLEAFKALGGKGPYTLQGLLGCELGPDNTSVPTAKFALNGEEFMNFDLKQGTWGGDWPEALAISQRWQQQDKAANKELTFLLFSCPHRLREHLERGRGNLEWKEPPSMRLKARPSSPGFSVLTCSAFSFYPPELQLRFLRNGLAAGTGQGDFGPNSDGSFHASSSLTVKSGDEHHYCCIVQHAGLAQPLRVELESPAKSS
T1 sequence (P61769 21-119 limits assumed, chain 2 of 2): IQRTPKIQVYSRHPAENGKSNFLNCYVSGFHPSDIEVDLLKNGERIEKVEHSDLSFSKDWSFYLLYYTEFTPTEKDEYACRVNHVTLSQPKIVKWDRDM
Assay: Biacore SPR, pH 7.0;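 note: test antibodies captured on a Protein L chip with human FcRn flowed over as analyte, KD obtained as the ratio of dissociation to association rate constants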

Binder	Kd [nM]
B1	73
B2	92
B3	140
B4	32
B5	71
B6	400
B7	21
B8	130
B9	220
B10	320
B11	170
B12	150
B13	480
B14	120
B15	130
B16	110
B17	150
B18	130
B19	100
B20	130

Binder	Kd [nM]
B21	120
B22	480
B23	190
B24	220
B25	280
B26	830
B27	130
B28	310
B29	110
B30	130
B31	98
B32	110
B33	97
B34	920
B35	210
B36	130
B37	310
B38	150
B39	170
B40	29

Binder	Kd [nM]
B41	160
B42	120
B43	120
B44	20
B45	310
B46	300
B47	71
B48	390
B49	250
B50	320
B51	230
B52	140
B53	59
B54	150
B55	250
B56	170
B57	230
B58	60
B59	34
B60	100
